Assay results taken from the supplement of paper PMC12042874.
± gives the uncertainty stated by the source.

Assay: amyloid nucleation score (Sup35N fusion, yeast selection) (log enrichment); library NNK1; higher = more nucleation; inactive = no reads after selection
In short: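 Sup35N fusions to peptides of 20 random codons were expressed in psi-negative yeast, induced 24 hours with 100 μM copper sulfate, and grown 7 days at 30°C on medium lacking adenine and uracil. Input and output plasmid inserts were sequenced by Illumina. The nucleation score is the DiMSum log enrichment of output over input reads, centred on the mode score of non-aggregating sequences. Sequences with under 100 input reads were excluded.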

| Substance | amyloid nucleation score |
| --- | --- |
| TGYRSTYLNEVTPIRIMPHR | 0.905 ± 0.4 |
| TGYVIGWVSWTSWWEMGLYR | -2.43 ± 2.4 |
| THARMKFLWFARF | -0.282 ± 0.83 |
| THGVSWQLVRDAILNGGPKR | -1.12 ± 1.3 |
| THKFLRTRTYFMSVRSVNYW | 1.19 ± 0.41 |
| THLLPFAGIGVCDLVRSAMG | 0.668 ± 0.93 |
| THMGWVMHYSYETTPHARPG | 3.84 ± 0.14 |
| THTRCLLVW | 0.216 ± 0.46 |
| THYIFLVYLWVYPGTDGWQR | inactive |
| TIAGHYYLWS | -0.291 ± 0.78 |
| TIALM | 0.335 ± 0.33 |
| TICSSTFNFCSCFVTYLRMG | 4.83 ± 0.072 |
| TIFAWAKHGQSNTVSRLGGF | 0.118 ± 0.44 |
| TIINLGILLYYVGFFSIDPG | 5.866 ± 0.052 |
| TIQMFAVSTCCFFRFTLHWN | -0.598 ± 0.56 |
| TKGYLWPRKQTAFVWIAMCG | -0.187 ± 0.27 |
| TKIHLPYCYANLVNHSVQHK | 0.704 ± 0.61 |
| TKLTSVYMK | -0.355 ± 0.62 |
| TKMHCVGGSSRTNKSLWTIY | 1.08 ± 0.57 |
| TKTTVHCFSSMIQYCAAPTL | -0.158 ± 0.73 |
| TKVDRLALSM | 0.658 ± 0.59 |
| TKWLLP | 0.504 ± 0.57 |
| TKWTGVFIWSLKAD | -0.051 ± 0.84 |
| TLCSSGKGRCLVAVT | 0.115 ± 1 |
| TLDFMLIKLSERLHLRC | 0.589 ± 0.3 |

| Substance | amyloid nucleation score |
| --- | --- |
| TLEFLMPSYLFHLGRMVNLS | -0.927 ± 1.4 |
| TLFMRVGYR | 3.87 ± 0.12 |
| TLGVMEGRNSDSLTVCRVGS | 1.06 ± 0.5 |
| TLLNGFFATSYCGCFFGSRT | 3.95 ± 0.13 |
| TLMGQWGWFSSVAYNNAGIV | -1.36 ± 0.86 |
| TLSIFVLRIGARYNMLSLIQ | 0.095 ± 0.59 |
| TLSISTMIAAVGTLSVCGDM | 0.768 ± 0.16 |
| TLSKYQS | 0.221 ± 0.53 |
| TLTVRRCSCQVQWGLRMFHL | -0.653 ± 1.4 |
| TLVKVRSELYSGRDAYELVS | 0.035 ± 0.26 |
| TMGVTIYGCWCDLNTSLVFG | -0.104 ± 0.24 |
| TMICFVVGFFGIQDKVVKCD | 0.135 ± 0.84 |
| TMNNFVLKSAFLKSAFTTGV | -1.04 ± 2.1 |
| TMSRQHKTGPNGSRAL | -0.073 ± 0.79 |
| TMVCFVLDNCICKSLVTTCL | inactive |
| TNCDVVNSCTFGGNGDY | 0.151 ± 1.1 |
| TNFDGYLFRFHIWRGCLVT | 0.188 ± 1 |
| TNMMYVYFKVI | inactive |
| TNSFSVGCVRIP | 0.657 ± 0.68 |
| TNSFYYGSVSTCYSRCNCKF | 7.362 ± 0.048 |
| TNSTISYFARFVVIWLGKIA | -0.488 ± 0.86 |
| TPCLKQLLLSSLILEGP | -0.6 ± 0.64 |
| TPFGSVMVGYWQPIPLRDLG | 0.634 ± 0.54 |
| TPLYDIWDVSVDLPLPCIFS | inactive |
| TPVTRIILVVVIRVPSGSGY | -1.03 ± 0.8 |

| Substance | amyloid nucleation score |
| --- | --- |
| TQHRRLVSRSQEFNVTQLKW | 2.3 ± 0.27 |
| TQLSMWSVRIKISYWVSGGV | 0.804 ± 1.1 |
| TQPMSF | inactive |
| TQRFFIVRMPSVCNNYYHLA | 4.52 ± 0.067 |
| TQSGVIQDAACPAMGMSNVL | 0.289 ± 0.66 |
| TQSRPLETGCPQLERSGLLA | -0.692 ± 0.81 |
| TRCCGFKRGGFVSYWMGSRP | 1.01 ± 0.51 |
| TRCINVYHPLCI | -0.875 ± 0.36 |
| TRCKTGSLRLNYVDISQPHV | 0.683 ± 0.8 |
| TRFLGYWADLSICMPSYGCR | -0.209 ± 1 |
| TRKWEYTSKVRVQRGSVYLL | 0.13 ± 0.65 |
| TRNLMPSRSFG | 2.08 ± 0.28 |
| TRPLQYIQ | -0.045 ± 1.1 |
| TRQYIEVSVNLCYIVVDKKN | -0.203 ± 0.39 |
| TRWQITDPYSPCTWSCSWTQ | 0.906 ± 1 |
| TSCFCI | -0.133 ± 0.33 |
| TSFCGLVAPQLCKFSMRSLE | -0.504 ± 0.47 |
| TSFCIETSGSILIELYGCWA | -0.356 ± 0.5 |
| TSHSCHIVGAFMKKCWFSST | -0.057 ± 0.65 |
| TSKERSLCSKDVT | 0.393 ± 0.55 |
| TSLYNCRVRRLYFWWLRIML | 1.14 ± 0.7 |
| TSNHML | 0.226 ± 0.61 |
| TSNLHTHGSVFDFWG | 0.732 ± 0.55 |
| TSQVSGRHVVSIDWTIWLSL | 0.616 ± 0.66 |
| TSRFPKASKSRLTRDCP | 0.323 ± 0.35 |

| Substance | amyloid nucleation score |
| --- | --- |
| TSTARISQPDNRVGLNF | -0.032 ± 0.44 |
| TSTLVMTNKMVLDSVE | -0.543 ± 0.25 |
| TSVTSVMWPYSPNGYLAVFR | -0.062 ± 1.2 |
| TSYGISLPAHP | 0.541 ± 0.75 |
| TTALDFRMDAMEVFRRFDEA | 0.14 ± 0.39 |
| TTFTRVTLICSPPVQAKLGR | 0.399 ± 0.27 |
| TTGKFDLFGDYHRGSLYSSV | -0.768 ± 0.49 |
| TTGSGSRSNWWYGSPNYYLS | -0.867 ± 0.53 |
| TTIAIRVLFQIVMVVSESRS | -0.247 ± 0.24 |
| TTIQGRPVNVAAFRTTLLTR | -1.11 ± 2.7 |
| TTIYRY | 0.234 ± 0.9 |
| TTLPREYYHRRVSVG | 0.373 ± 0.43 |
| TTLVLTADLAVNPRRWWTMI | 0.373 ± 0.43 |
| TTSWDYFGAKEIIRFVMVTC | -2.12 ± 2.7 |
| TVDGTECCWVDTRNNSRMVK | -0.941 ± 0.78 |
| TVFGVL | 0.705 ± 0.77 |
| TVHFSDWMIPNTRLEATCGM | 0.158 ± 0.31 |
| TVHTLSIFFSGRAFAANPFS | 2.36 ± 0.16 |
| TVIFMCLTAFGTSGNHIGSR | -0.776 ± 0.81 |
| TVIIWDENIWYFGAYAW | -1.53 ± 0.83 |
| TVKSWKFNRFIGLKRSTESL | 0.238 ± 0.42 |
| TVLDFCFWYAGVVFKYARFV | -0.932 ± 0.39 |
| TVMANKY | -0.16 ± 0.32 |
| TVNARVGVSIFYYWV | 0.345 ± 0.93 |
| TVNCGQSSMWDFWTGLTECG | -0.22 ± 0.75 |

| Substance | amyloid nucleation score |
| --- | --- |
| TVRQTGRVPMTGLIMFW | 1.95 ± 0.19 |
| TVSSLSWDGMPLLPVTLIFS | -1.01 ± 1.2 |
| TVTLGVPRQCAGTCRMVSLN | inactive |
| TVVHPFSYA | 0.487 ± 0.49 |
| TVWKSLLHNSAAAGV | 0.109 ± 1.6 |
| TWCIAVVSEILLLHI | inactive |
| TWDFSFDQGIKY | -0.125 ± 0.32 |
| TWIVEELFIGDRLALREGFR | 0.406 ± 0.63 |
| TWKAIWSEWYRTVPTGVLSN | 0.461 ± 0.42 |
| TWLYEIHTILMIGGIMRKRG | 0.734 ± 0.45 |
| TWNAFRRLWVTSDGYTRVLT | 1.23 ± 0.41 |
| TWQFCDVRL | -0.064 ± 0.39 |
| TWQLNIYMEKFSGVEKSSTV | 7.841 ± 0.053 |
| TWSRNIINFRIFWYTLFQVH | 0.005 ± 0.29 |
| TYCKASGVR | 0.371 ± 0.75 |
| TYCMYDYRKAVGEGWQFR | 0.124 ± 0.38 |
| TYCNMVITRQRNA | 0.685 ± 0.38 |
| TYHFIYEWISLTIT | inactive |
| TYIFVIPHLVRSTDWTLFAE | 0.017 ± 0.33 |
| TYILVFSVIYPSLKYECFCQ | 1.6 ± 0.61 |
| TYIYSTILEVFYLSLGHVII | 0.775 ± 0.35 |
| TYMFGHMGADMKGRRSWWCE | 0.354 ± 0.44 |
| TYRNS | -0.891 ± 1.2 |
| TYRVVFVAGIHQFNFVPLVR | 0.009 ± 1.1 |
| TYSWEDCTYGITPSGTYRSN | 1.33 ± 0.38 |

| Substance | amyloid nucleation score |
| --- | --- |
| TYYNLYSVRGGCFAHDVLAC | 0.234 ± 0.31 |
| VAADMEARYIFCYIINVDAR | 4.98 ± 0.083 |
| VAFRLTIGCVVSVSINVAGV | 1.19 ± 0.62 |
| VAFWFVLGWKGSLYYKGLAD | 0.334 ± 1.1 |
| VALLTNWFTGPQPLTMFTRV | 1.14 ± 0.9 |
| VALWYFCCVVAYYGGARLVS | 2.06 ± 0.33 |
| VAMILYGFTFWILRCNEWCR | 0.377 ± 0.24 |
| VAMRIWLVNACLGG | 0.092 ± 0.63 |
| VASFRMG | 1.37 ± 0.14 |
| VASRTLLCSLGRKRVVVCGC | -0.667 ± 0.29 |
| VAWPRGPVKARGIYISGRIC | inactive |
| VCAEWGAVAPGIGKEYQQRM | 2.04 ± 0.32 |
| VCGRGKGDD | -0.107 ± 0.27 |
| VCKITDLAARCHSREFWESR | 0.253 ± 0.25 |
| VCKVRRL | 0.461 ± 0.63 |
| VCLVDSSWGW | 3.86 ± 0.085 |
| VCMRTAGCFSDTYGVHGFKI | 1.21 ± 0.24 |
| VCMTTLCWISSGVGFLHWSS | 3.98 ± 0.068 |
| VCRTPSLRHHTFDVYFWSDV | -0.105 ± 1.4 |
| VCYCLKWEAMSVKLLCMGCA | -0.688 ± 0.6 |
| VDGRDKSFQSFYCKK | 0.236 ± 0.56 |
| VDISVAYRC | -1.59 ± 1.3 |
| VDKNMFI | -0.021 ± 1.2 |
| VDNFIYLVNYLHTRNFISRH | -0.287 ± 0.35 |
| VDSFRGHIESFPSLRTFIVS | inactive |

| Substance | amyloid nucleation score |
| --- | --- |
| VDTLLARIIRLRHQFSNTAV | 0.16 ± 0.29 |
| VDVANGLADVYLLQ | -0.009 ± 0.57 |
| VDVCCDGYRYLW | -0.754 ± 0.39 |
| VDVQGICRHISFNIAGA | -0.035 ± 0.72 |
| VEKRKTFRLGAFGEVRVICS | 0.461 ± 0.99 |
| VELSRASNLCQDNIREHMQV | -0.32 ± 0.31 |
| VEVCRTNWLVEL | 1.09 ± 0.57 |
| VEYVQYFWSSGGVYGSDTGW | 0.024 ± 0.76 |
| VFAVLRLPPKMTARSMGASP | 0.661 ± 0.61 |
| VFCVSRTINGYN | -0.374 ± 0.48 |
| VFGDT | 0.149 ± 0.97 |
| VFLLVPWPVSFGGRIHACEW | 0.286 ± 0.47 |
| VFLYFIVLNANHCFIMPEHF | 3.42 ± 0.089 |
| VFNLMI | 0.381 ± 0.28 |
| VFQVTWGWSCMREVELSSGT | 0.343 ± 0.67 |
| VFSDQQDHQHGWTYETSLSA | 0.619 ± 0.7 |
| VFSMC | inactive |
| VFSNLELTFDRGCFPVRCLR | -0.482 ± 0.35 |
| VFTACVCGRVEDISDCVPAL | -0.071 ± 0.76 |
| VFWGDKMSLLDLSVTNIMSI | 1.49 ± 0.4 |
| VFWSV | -0.096 ± 0.5 |
